From US10800813 (Bicycle, dated 2020)
Numbered stars: 1 amine (or outer) side, 2 acyl side, 3 side chain; on linkers, the order of the positions; unused ones are H or OH. Bridge positions count the residues as written; N and C are the ends. Square brackets hold non-standard residues; d marks the D form. Ends that are not written are not given here. Phe(4-guanidino) = N=C(N)Nc1ccc(C[C@H](N)C(=O)O)cc1; TBMB = c1c(C[*:1])cc(C[*:3])cc1C[*:2]; NMeR = CN[C@@H](CCCNC(=N)N)C(=O)O; hArg = N=C(N)NCCCC[C@H](N)C(=O)O; β3hR = N=C(N)NCCC[C@H](N)CC(=O)O; Cit = NC(=O)NCCC[C@H](N)C(=O)O; Dpg = CCCC(N)(CCC)C(=O)O; Aze = O=C(O)[C@@H]1CCN1; Abu = CC[C@H](N)C(=O)O; Aib = CC(C)(N)C(=O)O; βAla = NCCC(=O)O

B1: Ac-(06-34-18) Δ Arg5 (peptide)
peptide: Ac-CSWPACLHQDLC-NH2
modifications: linker 1-6-12 via TBMB
SMILES: CC(=O)N[C@H]1CSCc2cc3cc(c2)CSC[C@H](NC(=O)[C@H](C)NC(=O)[C@@H]2CCCN2C(=O)[C@H](Cc2c[nH]c4ccccc24)NC(=O)[C@H](CO)NC1=O)C(=O)N[C@@H](CC(C)C)C(=O)N[C@@H](Cc1c[nH]cn1)C(=O)N[C@@H](CCC(N)=O)C(=O)N[C@@H](CC(=O)O)C(=O)N[C@@H](CC(C)C)C(=O)N[C@H](C(N)=O)CSC3
notes: Residue ranges derived from the stated deletion of Arg5
B2: Ac-(06-34-18) Cit5 (peptide)
peptide: Ac-CSWPA[Cit]CLHQDLC-NH2
modifications: linker 1-7-13 via TBMB
SMILES: CC(=O)N[C@H]1CSCc2cc3cc(c2)CSC[C@H](NC(=O)[C@H](CCCNC(N)=O)NC(=O)[C@H](C)NC(=O)[C@@H]2CCCN2C(=O)[C@H](Cc2c[nH]c4ccccc24)NC(=O)[C@H](CO)NC1=O)C(=O)N[C@@H](CC(C)C)C(=O)N[C@@H](Cc1c[nH]cn1)C(=O)N[C@@H](CCC(N)=O)C(=O)N[C@@H](CC(=O)O)C(=O)N[C@@H](CC(C)C)C(=O)N[C@H](C(N)=O)CSC3
B3: Ac-(06-34-18) βhomoArg5 (peptide)
peptide: Ac-CSWPA[β3hR]CLHQDLC-NH2
modifications: linker 1-7-13 via TBMB
SMILES: CC(=O)N[C@H]1CSCc2cc3cc(c2)CSC[C@H](NC(=O)C[C@H](CCCNC(=N)N)NC(=O)[C@H](C)NC(=O)[C@@H]2CCCN2C(=O)[C@H](Cc2c[nH]c4ccccc24)NC(=O)[C@H](CO)NC1=O)C(=O)N[C@@H](CC(C)C)C(=O)N[C@@H](Cc1c[nH]cn1)C(=O)N[C@@H](CCC(N)=O)C(=O)N[C@@H](CC(=O)O)C(=O)N[C@@H](CC(C)C)C(=O)N[C@H](C(N)=O)CSC3
B4: Ac-(06-34-18) D-Cys2 (peptide)
peptide: Ac-CSWPAR[dC]LHQDLC-NH2
modifications: linker 1-7-13 via TBMB
SMILES: CC(=O)N[C@H]1CSCc2cc3cc(c2)CSC[C@@H](NC(=O)[C@H](CCCNC(=N)N)NC(=O)[C@H](C)NC(=O)[C@@H]2CCCN2C(=O)[C@H](Cc2c[nH]c4ccccc24)NC(=O)[C@H](CO)NC1=O)C(=O)N[C@@H](CC(C)C)C(=O)N[C@@H](Cc1c[nH]cn1)C(=O)N[C@@H](CCC(N)=O)C(=O)N[C@@H](CC(=O)O)C(=O)N[C@@H](CC(C)C)C(=O)N[C@H](C(N)=O)CSC3
B5: Ac-(06-34-18) D-Pro3 (peptide)
peptide: Ac-CSW[dP]ARCLHQDLC-NH2
modifications: linker 1-7-13 via TBMB
SMILES: CC(=O)N[C@H]1CSCc2cc3cc(c2)CSC[C@H](NC(=O)[C@H](CCCNC(=N)N)NC(=O)[C@H](C)NC(=O)[C@H]2CCCN2C(=O)[C@H](Cc2c[nH]c4ccccc24)NC(=O)[C@H](CO)NC1=O)C(=O)N[C@@H](CC(C)C)C(=O)N[C@@H](Cc1c[nH]cn1)C(=O)N[C@@H](CCC(N)=O)C(=O)N[C@@H](CC(=O)O)C(=O)N[C@@H](CC(C)C)C(=O)N[C@H](C(N)=O)CSC3
B6: Ac-(06-34-18) D-Trp2 (peptide)
peptide: Ac-CS[dW]PARCLHQDLC-NH2
modifications: linker 1-7-13 via TBMB
SMILES: CC(=O)N[C@H]1CSCc2cc3cc(c2)CSC[C@H](NC(=O)[C@H](CCCNC(=N)N)NC(=O)[C@H](C)NC(=O)[C@@H]2CCCN2C(=O)[C@@H](Cc2c[nH]c4ccccc24)NC(=O)[C@H](CO)NC1=O)C(=O)N[C@@H](CC(C)C)C(=O)N[C@@H](Cc1c[nH]cn1)C(=O)N[C@@H](CCC(N)=O)C(=O)N[C@@H](CC(=O)O)C(=O)N[C@@H](CC(C)C)C(=O)N[C@H](C(N)=O)CSC3
B7: Ac-(06-34-18) D-Arg5 (peptide)
peptide: Ac-CSWPA[dR]CLHQDLC-NH2
modifications: linker 1-7-13 via TBMB
SMILES: CC(=O)N[C@H]1CSCc2cc3cc(c2)CSC[C@H](NC(=O)[C@@H](CCCNC(=N)N)NC(=O)[C@H](C)NC(=O)[C@@H]2CCCN2C(=O)[C@H](Cc2c[nH]c4ccccc24)NC(=O)[C@H](CO)NC1=O)C(=O)N[C@@H](CC(C)C)C(=O)N[C@@H](Cc1c[nH]cn1)C(=O)N[C@@H](CCC(N)=O)C(=O)N[C@@H](CC(=O)O)C(=O)N[C@@H](CC(C)C)C(=O)N[C@H](C(N)=O)CSC3
B8: Ac-(06-34-18) D-Ala4 (peptide)
peptide: Ac-CSWP[dA]RCLHQDLC-NH2
modifications: linker 1-7-13 via TBMB
SMILES: CC(=O)N[C@H]1CSCc2cc3cc(c2)CSC[C@H](NC(=O)[C@H](CCCNC(=N)N)NC(=O)[C@@H](C)NC(=O)[C@@H]2CCCN2C(=O)[C@H](Cc2c[nH]c4ccccc24)NC(=O)[C@H](CO)NC1=O)C(=O)N[C@@H](CC(C)C)C(=O)N[C@@H](Cc1c[nH]cn1)C(=O)N[C@@H](CCC(N)=O)C(=O)N[C@@H](CC(=O)O)C(=O)N[C@@H](CC(C)C)C(=O)N[C@H](C(N)=O)CSC3
B9: Ac-(06-34-18) Phe2 Aze3Tyr4 NMeArg5 (peptide)
peptide: Ac-CSF[Aze]Y[NMeR]CLHQDLC-NH2
modifications: linker 1-7-13 via TBMB
SMILES: CC(=O)N[C@H]1CSCc2cc3cc(c2)CSC[C@H](NC(=O)[C@H](CCCNC(=N)N)N(C)C(=O)[C@H](Cc2ccc(O)cc2)NC(=O)[C@@H]2CCN2C(=O)[C@H](Cc2ccccc2)NC(=O)[C@H](CO)NC1=O)C(=O)N[C@@H](CC(C)C)C(=O)N[C@@H](Cc1c[nH]cn1)C(=O)N[C@@H](CCC(N)=O)C(=O)N[C@@H](CC(=O)O)C(=O)N[C@@H](CC(C)C)C(=O)N[C@H](C(N)=O)CSC3
B10: Ac-(06-34-18) Dpg1 (peptide)
peptide: Ac-C[Dpg]WPARCLHQDLC-NH2
modifications: linker 1-7-13 via TBMB
SMILES: CCCC1(CCC)NC(=O)[C@@H](NC(C)=O)CSCc2cc3cc(c2)CSC[C@H](NC(=O)[C@H](CCCNC(=N)N)NC(=O)[C@H](C)NC(=O)[C@@H]2CCCN2C(=O)[C@H](Cc2c[nH]c4ccccc24)NC1=O)C(=O)N[C@@H](CC(C)C)C(=O)N[C@@H](Cc1c[nH]cn1)C(=O)N[C@@H](CCC(N)=O)C(=O)N[C@@H](CC(=O)O)C(=O)N[C@@H](CC(C)C)C(=O)N[C@H](C(N)=O)CSC3
B11: Ac-(06-34-18) Aba4 (peptide)
peptide: Ac-CSWP[Abu]RCLHQDLC-NH2
modifications: linker 1-7-13 via TBMB
SMILES: CC[C@@H]1NC(=O)[C@@H]2CCCN2C(=O)[C@H](Cc2c[nH]c3ccccc23)NC(=O)[C@H](CO)NC(=O)[C@@H](NC(C)=O)CSCc2cc3cc(c2)CSC[C@H](NC(=O)[C@H](CCCNC(=N)N)NC1=O)C(=O)N[C@@H](CC(C)C)C(=O)N[C@@H](Cc1c[nH]cn1)C(=O)N[C@@H](CCC(N)=O)C(=O)N[C@@H](CC(=O)O)C(=O)N[C@@H](CC(C)C)C(=O)N[C@H](C(N)=O)CSC3
B12: Ac-(06-34-18) β-Ala4 (peptide)
peptide: Ac-CSWP[βAla]RCLHQDLC-NH2
modifications: linker 1-7-13 via TBMB
SMILES: CC(=O)N[C@H]1CSCc2cc3cc(c2)CSC[C@H](NC(=O)[C@H](CCCNC(=N)N)NC(=O)CCNC(=O)[C@@H]2CCCN2C(=O)[C@H](Cc2c[nH]c4ccccc24)NC(=O)[C@H](CO)NC1=O)C(=O)N[C@@H](CC(C)C)C(=O)N[C@@H](Cc1c[nH]cn1)C(=O)N[C@@H](CCC(N)=O)C(=O)N[C@@H](CC(=O)O)C(=O)N[C@@H](CC(C)C)C(=O)N[C@H](C(N)=O)CSC3
B13: Ac-(06-34-18) Aib4 (peptide)
peptide: Ac-CSWP[Aib]RCLHQDLC-NH2
modifications: linker 1-7-13 via TBMB
SMILES: CC(=O)N[C@H]1CSCc2cc3cc(c2)CSC[C@H](NC(=O)[C@H](CCCNC(=N)N)NC(=O)C(C)(C)NC(=O)[C@@H]2CCCN2C(=O)[C@H](Cc2c[nH]c4ccccc24)NC(=O)[C@H](CO)NC1=O)C(=O)N[C@@H](CC(C)C)C(=O)N[C@@H](Cc1c[nH]cn1)C(=O)N[C@@H](CCC(N)=O)C(=O)N[C@@H](CC(=O)O)C(=O)N[C@@H](CC(C)C)C(=O)N[C@H](C(N)=O)CSC3

What follows are binders tested against T1, human plasma Kallikrein (human, UniProt P03952 20-638, limits assumed) (assay: enzyme inhibition assay).
T1 construct: also called hPK; human PK
T1 sequence (P03952 20-638 limits assumed): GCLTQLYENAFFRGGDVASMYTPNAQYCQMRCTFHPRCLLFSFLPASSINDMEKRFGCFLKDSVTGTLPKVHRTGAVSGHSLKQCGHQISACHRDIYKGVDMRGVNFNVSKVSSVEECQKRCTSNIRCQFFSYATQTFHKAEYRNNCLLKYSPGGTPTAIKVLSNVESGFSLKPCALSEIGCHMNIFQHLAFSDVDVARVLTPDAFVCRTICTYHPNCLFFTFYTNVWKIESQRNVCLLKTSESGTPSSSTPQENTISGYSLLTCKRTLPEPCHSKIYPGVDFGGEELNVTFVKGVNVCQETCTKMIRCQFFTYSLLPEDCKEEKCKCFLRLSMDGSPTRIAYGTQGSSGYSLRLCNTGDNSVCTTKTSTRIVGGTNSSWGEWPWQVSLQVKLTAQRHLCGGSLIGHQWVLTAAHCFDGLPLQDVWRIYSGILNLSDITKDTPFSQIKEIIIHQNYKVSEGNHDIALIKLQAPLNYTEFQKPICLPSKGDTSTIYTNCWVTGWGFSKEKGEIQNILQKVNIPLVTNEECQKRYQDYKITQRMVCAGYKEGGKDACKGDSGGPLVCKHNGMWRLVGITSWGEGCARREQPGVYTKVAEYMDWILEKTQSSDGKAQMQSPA
B1 gave a Ki of over 100000 nM. B2 gave a Ki of 7860 nM. B3 was tested, and the Ki was 8.2 nM.

Molecular target: T1, human plasma Kallikrein
Test: enzyme inhibition assay
Remark: another data set of the same source
Binder B4 has a Ki of 234 nM. B5 showed a Ki of 680 nM. B6 gave a Ki of 7560 nM. In the case of B7, the Ki is reported as 52 nM. B8 was tested, and the Ki was 1200 nM.

Molecular target: T1, human plasma Kallikrein
Test: enzyme inhibition assay
Remark: another data set of the same source
With ACFDPCRVICA (linker 2-6-10 via TBMB, also called PK124) [3B9] the Ki was 90.8 nM. ACFPKCRVACA (linker 2-6-10 via TBMB, also called PK122) [3A3] was tested, and the Ki was 43.1 nM. In the case of ACFKNCRVNCA (linker 2-6-10 via TBMB, also called PK119) [3B2], the Ki is reported as 9 nM. ACFKQCRVNCA (linker 2-6-10 via TBMB, also called PK118) [06-94] gave a Ki of 0.7 nM. Work on ACFNKCRVNCA (linker 2-6-10 via TBMB; not fully specified (N-terminus, C-terminus), also called PK121) [06-64 (3x3 peptide of Table 3)] yielded a Ki of 4.8 nM. In the case of ACFYKCRVNCA (linker 2-6-10 via TBMB; not fully specified (N-terminus, C-terminus), also called PK120) [06-71], the Ki is reported as 15.2 nM.

Molecular target: T1, human plasma Kallikrein
Test: enzyme inhibition assay
Remark: another data set of the same source
For B6, the “fold loss in potency against Ac-06-34-18(TMB)-NH2” value was 45000 fold. For B7, the “fold loss in potency against Ac-06-34-18(TMB)-NH2” value was 300 fold. With B8 the “fold reduction of affinity against Ac-06-34-18(TMB)-NH2” value was 7000 fold.

Molecular target: T1, human plasma Kallikrein
Test: enzyme inhibition assay
Remark: another data set of the same source
For Ac-CSF[Aze]Y[hArg]CLHQDLC-NH2 (linker 1-7-13 via TBMB) [Ac-(06-34-18) Phe2 Aze3 Tyr4 HomoArg5], the Ki was 0.12 nM. For B9, the Ki was 0.97 nM. Binder Ac-CSF[Aze]Y[Phe(4-guanidino)]CLHQDLC-NH2 (linker 1-7-13 via TBMB) [Ac-(06-34-18) Phe2 Aze3Tyr4 4GuanPhe5] has a Ki of 0.36 nM.

Molecular target: T1, human plasma Kallikrein
Test: enzyme inhibition assay
Remark: another data set of the same source
B10 gave a Ki of 1.09 nM. For B11, the Ki was 0.07 nM. Binder B12 has a Ki of 17400 nM. With B13 the Ki was 289 nM.
